The text below walks through data of the RNAGym collection of RNA variant scans (doi:10.7554/elife.90254).

The labels stand for the following.
B1: LINE1-full (parent)
chain: UACGUAGGUGGUUUUCCCCUGAUAGUGCUAAGGGGGCCUGGAAGUUUGGACUGGGCAGAGCUCAACACAGCGUGGCAAAGUGGCUGUGGCUAGACUGCCUCUCUGGAUUCCUCGUCACUCAGCAGGGCAUCUCUGAGAGAAAUGCC

The series covers variants of B1. Nature of the series: self-cleavage, relative activity (ratio to wild type); higher = more cleavage; in vitro, sequencing; the parent is a self-cleaving ribozyme.
U29C A107U: the self-cleavage was found to be 1.21.
Under U29C A107G stands 0.7.
To U29C A59G belongs 0.16; to U29C A59U, 1.13.
Under C28U A140U stands 0.95; under G27A U112C, 1.7; under U29C A140G, 1.2.
On to U29C C116U, for which the self-cleavage was 0.85.
For the variant U29C, the self-cleavage turned out to be 1.28.
With U29A, the self-cleavage is 1.23.
To U26G U104C belongs 0.81; to C28U U102C, 0.15; to C28A G32C, 0.96.
In the case of U29A A77U, the self-cleavage was 1.79.
As to U29A A121G, the self-cleavage stood at 1.31.
With U29C A77C, the self-cleavage was 0.85.
Take U29C A77U: the self-cleavage was 1.63.
For the variant U29A A142C, the self-cleavage came to 0.56.
Under U29A A142G stands 1.04; under U29C A65G, 0.09; under U29C A65C, 0.1.
Under G27A A136G stands 0.93; under U29C A69U, 0.11.
As to U26G G34A, the self-cleavage is 0.93.
Under U29A U134C stands 0.87; under G27U C84A, 0.1.
To U29A G89U belongs 0.04; to U29A A94G, 0.54; to U29C C66U, 0.07.
In the case of U29A C110U, the self-cleavage is 1.07.
As for C28U U119C, the self-cleavage is 1.12.
To G27A U108C belongs 1.15; to U29A U112C, 0.43.
Under U26G U47C stands 1.16.
Under U29C A138G stands 1.72; under U29C C145U, 1.28; under U29A U91C, 0.4.
On to U29A U62C, for which the self-cleavage is 0.
Take C28U U130C: the self-cleavage was 0.7.
To U29A U102C belongs 1.2.
Under U29A U73C stands 1.63.
Under U29A A141G stands 1.15.
Take G27A U102C: the self-cleavage was 0.84.
Regarding G27U U39C, the self-cleavage turned out to be 0.63.
To U29A G44A belongs 0.61; to C28U G89U, 0.06.
To C28A G54A belongs 0.57.
As for U29A U143C, the self-cleavage stood at 1.16.
As for U29A U143A, the self-cleavage is 0.84.
In the case of U29C A42G, the self-cleavage was found to be 1.66.
To C28G U143A belongs 1.45; to G27A A140U, 1.28.
Under U29A U132C stands 0.59.
To U29A U132A belongs 1.09; to C28A U115C, 1.07.
Turning to C28A A94G, the self-cleavage turned out to be 0.
Consider C28U U45G, for which the self-cleavage was determined as 1.09.
Consider C28A C116U, for which the self-cleavage amounted to 1.34.
To C28U A64G belongs 0.16; to C28U A64U, 0.33.
Take U29A U81A: the self-cleavage came out at 1.96.
Under G27A C111A stands 1.16; under C28A C131G, 0.33.
For the variant U29C C120A, the self-cleavage amounted to 1.24.
Regarding G27A A67G, the self-cleavage was 0.45.
As for G27A U73C, the self-cleavage is 0.93.
Under G27A U73A stands 0.87; under U26G U130A, 0.79; under C28G U134C, 0.82.
Take U29A A117U: the self-cleavage is 1.06.
Turning to G27A A129G, the self-cleavage was 2.07.
With G27A U87C, the self-cleavage is 0.19.
With U29C A124C, the self-cleavage was found to be 1.23.
Under U29C A124U stands 1.04; under U29C A124G, 1.02; under G27A U130C, 1.34.
U29A C66U: the self-cleavage amounted to 0.25.
Under U29A C101U stands 1.71; under U29A A69U, 0.07; under U29A A69G, 0.42.
U29C A117G: the self-cleavage was 0.44.
Under G27A U46C stands 0.7.
As for C28U A141U, the self-cleavage is 0.54.
U26G U100C: the self-cleavage is 1.22.
As to U29A A124C, the self-cleavage stood at 1.52.
Under U29A U47A stands 1.6; under G27U, 0.97; under G27C, 1.11.
Under G27A stands 1.07.
To U29C A31G belongs 1.14; to U29C C111A, 1.24; to U29A A64G, 0.48.
Consider U29C A129G, for which the self-cleavage was 2.12.
With U29A U52C, the self-cleavage was determined as 1.3.
Take G27A G54A: the self-cleavage amounted to 0.59.
For the variant G27A A69C, the self-cleavage worked out at 0.11.
To C28U U39C belongs 0.97.
Regarding U29C A64G, the self-cleavage was found to be 0.38.
To U29C A64C belongs 0.61.
Under U29C A50U stands 1.14.
Regarding U26G G27A, the self-cleavage was 1.01.
Consider U29A U119C, for which the self-cleavage was 0.97.
Consider U29A U119G, for which the self-cleavage is 1.31.
For the variant G27C U109C, the self-cleavage amounted to 0.92.
Under U29C A67G stands 0.76.
As for U29C A67U, the self-cleavage turned out to be 0.12.
Under C28A G126A stands 0.66; under G27A A138G, 1.02.
To C28A G88A belongs 0.
In the case of C28U A92G, the self-cleavage stood at 0.11.
To C28U A57U belongs 0.11; to C28G U85A, 0.23; to U29C A78G, 1.17.
Under G27A A42U stands 0.99; under U29A U45C, 0.96; under U29A U45G, 0.38.
Consider G27C U112G, for which the self-cleavage worked out at 1.11.
U26G U91C: the self-cleavage amounted to 0.44.
Under G27A U85C stands 0.13; under G27C A117G, 0.95; under U29A G48A, 1.01.
Under C28U A43C stands 1.2; under C28A U102A, 1.12.
Under C28U A138G stands 1.01.
U26G G125U: the self-cleavage was 1.59.
Take C28U U143G: the self-cleavage was found to be 1.02.
To C28U C84U belongs 0.25.
Under C28U U96A stands 0.06.
To G27U U134A belongs 1.29; to U26G U87C, 0.3; to U26G U87A, 0.
Turning to C28A A78G, the self-cleavage was 0.61.
With C28A A79U, the self-cleavage was determined as 1.47.
With G27A U132C, the self-cleavage is 1.27.
Under C28G U45C stands 1.09.
To U26G U119C belongs 0.98; to C28A A117G, 0.74; to U26G C111U, 0.63.
Regarding U29C A92G, the self-cleavage is 0.21.
To U29A G54A belongs 0.75; to U29C A121U, 1.5; to U29C A121C, 1.93.
Under G27A G55A stands 0.21.
U29C C63A: the self-cleavage stood at 0.07.
In the case of U29C C63U, the self-cleavage worked out at 0.48.
On to U26G G55A, for which the self-cleavage was 0.21.
Consider G27U A67G, for which the self-cleavage was 0.28.
Regarding U29C A136U, the self-cleavage is 1.54.
Consider G27A A65G, for which the self-cleavage turned out to be 0.05.
Under G27A G144A stands 1.08; under U29C C84G, 0.14; under G27A G88A, 0.04.
To U29C C123U belongs 1.21.
To U29A G72A belongs 1.13.
For the variant G27A U134A, the self-cleavage was 0.87.
Under G27A U134C stands 1.58; under G27A U143C, 1.38; under U26G U85C, 0.14.
To C28U A121G belongs 0.66; to G27A A59G, 0.13.
Under U29A C51A stands 1.65; under U29A U130C, 0.81; under G27A A142G, 1.15.
On to C28A U134C, for which the self-cleavage was determined as 1.92.
For the variant G27A C98A, the self-cleavage is 0.14.
With U26G G60C, the self-cleavage was determined as 0.07.
Under U29C A94G stands 0.54.
